Data on 2 molecules can be found in article PMC4480739, “Oncogenic mutations of thyroid hormone receptor β” (Oncotarget, 2015).

Assay [1] deals with GST fused p85α-CSH2 (C-terminal Src-homology 2 domain of p85α) (UniProt P27986). Briefly: pull-down; GST-CSH2 (~5 μg, E. coli expressed) incubated with equal amounts of in vitro translated TRβ1 or mutants, in the presence of T3; bound receptor detected by Western blot with anti-TRβ1; band intensities quantified with ImageJ. Background: A western blot detects proteins with antibodies after separation by electrophoresis.

In assay [2] the target is T1, GST fused p85α-CSH2 (C-terminal Src-homology 2 domain of p85α) (UniProt P27986 623-706).
T1 construct: C-terminal SH2 (CSH2) domain of the p85α regulatory subunit of PI3K; the limits 623-706 are told of the domain in the discussion, not in the methods of this assay; also called GST–CSH2; CSH2-conjugated to GST; source: E. coli expressed
The description is as above. The following applies: one partner purified.

Sequence of GST fused p85α-CSH2 (C-terminal Src-homology 2 domain of p85α) (UniProt P27986) (P27986 623-706): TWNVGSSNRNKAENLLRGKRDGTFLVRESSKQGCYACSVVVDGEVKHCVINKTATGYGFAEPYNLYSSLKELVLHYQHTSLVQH
T1 sequence (P27986 623-706): as above

Consider “in vitro translated PV (from UniProt P10828 1-461) (receptor)”, for which the fold association relative to TRβ1 in assay [1] turned out to be 3 fold.

B1: in vitro translated AM (receptor, human, UniProt P10828 1-461, looked up)
chain: MTPNSMTENGLTAWDKPKHCPDREHDWKLVGMSEACLHRKSHSERRSTLKNEQSSPHLIQTTWTSSIFHLDHDDVNDQSVSSAQTFQTEEKKCKGYIPSYLDKDELCVVCGDKATGYHYRCITCEGCKGFFRRTIQKNLHPSYSCKYEGKCVIDKVTRNQCQECRFKKCIYVGMATDLVLDDSKRLAKRKLIEENREKRRREELQKSIGHKPEPTDEEWELIKTVTEAHVATNAQGSHWKQKRKFLPEDIGQAPIVNAPEGGKVDLEAFSHFTKIITPAITRVVDFAKKLPMFCELPCEDQIILLKGCCMEIMSLRAAVRYDPESETLTLNGEMAVTRGQLKNGGLGVVSDAIFDLGMSLSSFNLDDTEVALLQAVLLMSSDRPGLACVERIEKYQDSFLLAFEHYINYRKHHVTHFWPKLLMKVTDLRMIGACHCQPLPAHEGGMPTELFPPLFLEVFED
notes: source: in vitro translated (TNT T7 quick coupled kit, Promega)
Take B1: in assay [2], the “fold association relative to TRβ1” value was determined as 3 fold.
